We go through two molecules from article PMC9884259 (The Journal of Membrane Biology, 2022).

B1: Streptolysin O (SLO), wildtype, residues L78-K571, His-tagged (natural protein)
chain: LAPKEMPLESAEKEEKKSEDKKKSEEDHTEEINDKIYSLNYNELEVLAKNGETIENFVPKEGVKKADKFIVIERKKKNINTTPVDISIIDSVTDRTYPAALQLANKGFTENKPDAVVTKRNPQKIHIDLPGMGDKATVEVNDPTYANVSTAIDNLVNQWHDNYSGGNTLPARTQYTESMVYSKSQIEAALNVNSKILDGTLGIDFKSISKGEKKVMIAAYKQIFYTVSANLPNNPADVFDKSVTFKELQRKGVSNEAPPLFVSNVAYGRTVFVKLETSSKSNDVEAAFSAALKGTDVKTNGKYSDILENSSFTAVVLGGDAAEHNKVVTKDFDVIRNVIKDNATFSRKNPAYPISYTSVFLKNNKIAGVNNRTEYVETTSTEYTSGKINLSHQGAYVAQYEILWDEINYDDKGKEVITKRRWDNNWYSKTSPFSTVIPLGANSRNIRIMARECTGLAWEWWRKVIDERDVKLSKEINVNISGSTLSPYGSITYK

The series “high-speed AFM” concerns the molecule itself. Nature of the series: high-speed AFM.
Series [1] addresses B1. Nature of the series: high-speed AFM. Particulars: both partners purified.

Take B1: the binding result in the series “high-speed AFM” is listed as “binds”.

B2: SLO (C/A)-SS mutant ([change], [change], [change]), residues L78-K571, His-tagged (natural protein)
chain: LAPKEMPLESAEKEEKKSEDKKKSEEDHTEEINDKIYSLNYNELEVLAKNCETIENFVPKEGVKKADKFIVIERKKKNINTTPVDISIIDSVTDRTYPAALQLANKGFTENKPDAVVTKRNPQKIHIDLPGMGDKATVEVNDPTYANVSTAIDNLVNQWHDNYSGGNTLPARTQYTESMVYSKCQIEAALNVNSKILDGTLGIDFKSISKGEKKVMIAAYKQIFYTVSANLPNNPADVFDKSVTFKELQRKGVSNEAPPLFVSNVAYGRTVFVKLETSSKSNDVEAAFSAALKGTDVKTNGKYSDILENSSFTAVVLGGDAAEHNKVVTKDFDVIRNVIKDNATFSRKNPAYPISYTSVFLKNNKIAGVNNRTEYVETTSTEYTSGKINLSHQGAYVAQYEILWDEINYDDKGKEVITKRRWDNNWYSKTSPFSTVIPLGANSRNIRIMAREATGLAWEWWRKVIDERDVKLSKEINVNISGSTLSPYGSITYK
As for B2, the binding result (in series [1]; in the series “high-speed AFM”) was “binds” each time.
